In IntAct's records for PubMed 16061658:

B1: Receptor tyrosine-protein kinase erbB-4 (Mus musculus), Q61527 (parent)
chain: MKLATGLWVWGSLLMAAGTVQPSASQSVCAGTENKLSSLSDLEQQYRALRKYYENCEVVMGNLEITSIEHNRDLSFLRSIREVTGYVLVALNQFRYLPLENLRIIRGTKLYEDRYALAIFLNYRKDGNFGLQELGLKNLTEILNGGVYVDQNKFLCYADTIHWQDIVRNPWPSNMTLVSTNGSSGCGRCHKSCTGRCWGPTENHCQTLTRTVCAEQCDGRCYGPYVSDCCHRECAGGCSGPKDTDCFACMNFNDSGACVTQCPQTFVYNPTTFQLEHNFNAKYTYGAFCVKKCPHNFVVDSSSCVRACPSSKMEVEENGIKMCKPCTDICPKACDGIGTGSLMSAQTVDSSNIDKFINCTKINGNLIFLVTGIHGDPYNAIDAIDPEKLNVFRTVREITGFLNIQSWPPNMTDFSVFSNLVTIGGRVLYSGLSLLILKQQGITSLQFQSLKEISAGNIYITDNSNLCYYHTINWTTLFSTINQRIVIRDNRRAENCTAEGMVCNHLCSNDGCWGPGPDQCLSCRRFSRGKICIESCNLYDGEFREFENGSICVECDSQCEKMEDGLLTCHGPGPDNCTKCSHFKDGPNCVEKCPDGLQGANSFIFKYADQDRECHPCHPNCTQGCNGPTSHDCIYYPWTGHSTLPQHARTPLIAAGVIGGLFILVIMALTFAVYVRRKSIKKKRALRRFLETELVEPLTPSGTAPNQAQLRILKETELKRVKVLGSGAFGTVYKGIWVPEGETVKIPVAIKILNETTGPKANVEFMDEALIMASMDHPHLVRLLGVCLSPTIQLVTQLMPHGCLLDYVHEHKDNIGSQLLLNWCVQIAKGMMYLEERRLVHRDLAARNVLVKSPNHVKITDFGLARLLEGDEKEYNADGGKMPIKWMALECIHYRKFTHQSDVWSYGVTIWELMTFGGKPYDGIPTREIPDLLEKGERLPQPPICTIDVYMVMVKCWMIDADSRPKFKELAAEFSRMARDPQRYLVIQGDDRMKLPSPNDSKFFQNLLDEEDLEDMMDAEEYLVPQAFNIPPPIYTSRTRIDSNRSEIGHSPPPAYTPMSGNQFVYQDGGFATQQGMPMPYRATTSTIPEAPVAQGATAEMFDDSCCNGTLRKPVAPHVQEDSSTQRYSADPTVFAPERNPRGELDEEGYMTPMHDKPKQEYLNPVEENPFVSRRKNGDLQALDNPEYHSASSGPPKAEDEYVNEPLYLNTFANALGSAEYMKNSVLSVPEKAKKAFDNPDYWNHSLPPRSTLQHPDYLQEYSTKYFYKQNGRIRPIVAENPEYLSEFSLKPGTMLPPPPYRHRNTVV
partner: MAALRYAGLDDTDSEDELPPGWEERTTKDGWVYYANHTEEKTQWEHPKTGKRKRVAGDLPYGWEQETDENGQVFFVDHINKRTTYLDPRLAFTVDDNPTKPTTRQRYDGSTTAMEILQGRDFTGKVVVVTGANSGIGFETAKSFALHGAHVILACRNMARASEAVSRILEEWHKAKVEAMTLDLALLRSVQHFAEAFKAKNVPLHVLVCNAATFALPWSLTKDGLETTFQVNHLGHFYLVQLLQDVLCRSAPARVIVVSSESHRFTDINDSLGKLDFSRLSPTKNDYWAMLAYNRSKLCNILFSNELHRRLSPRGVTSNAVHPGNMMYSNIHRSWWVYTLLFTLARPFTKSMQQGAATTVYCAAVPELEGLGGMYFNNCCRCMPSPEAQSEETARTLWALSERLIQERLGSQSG
B2: WW domain-containing oxidoreductase (Homo sapiens), Q9NZC7 (parent)
chain: B1 partner

Variants of: B1
Details: with wwox_human WWOX, Q9NZC7

Variant | effect of a mutation on the interaction
Y1035A;Y1301A | disrupting interaction

Variants of: B2
Details: with erbb4_mouse Erbb4, Q61527

Variant | effect of a mutation on the interaction
MAALRYAGLDDTDSEDELPPGWEERTTKDGWVRYANHTEEKTQWEHPKTGKRKRVAGDLPYGWEQETDENGQVFFVDHINKRTTYLDPRLAFTVDDNPTKPTTRQRYDGSTTAMEILQGRDFTGKVVVVTGANSGIGFETAKSFALHGAHVILACRNMARASEAVSRILEEWHKAKVEAMTLDLALLRSVQHFAEAFKAKNVPLHVLVCNAATFALPWSLTKDGLETTFQVNHLGHFYLVQLLQDVLCRSAPARVIVVSSESHRFTDINDSLGKLDFSRLSPTKNDYWAMLAYNRSKLCNILFSNELHRRLSPRGVTSNAVHPGNMMYSNIHRSWWVYTLLFTLARPFTKSMQQGAATTVYCAAVPELEGLGGMYFNNCCRCMPSPEAQSEETARTLWALSERLIQERLGSQSG [Y33R] | disrupting interaction
